This test deals with CD20 receptor on WIL2-S cell line (human) (UniProt P11836). In words: flow cytometry on WIL2-S cells, detection with anti-human Fc-PE. A general note: Flow cytometry measures light scatter and fluorescence of single cells or particles in a stream.

The record followed here is patent US20220089761A1.

Chain of UniProt P11836 (P11836 whole entry): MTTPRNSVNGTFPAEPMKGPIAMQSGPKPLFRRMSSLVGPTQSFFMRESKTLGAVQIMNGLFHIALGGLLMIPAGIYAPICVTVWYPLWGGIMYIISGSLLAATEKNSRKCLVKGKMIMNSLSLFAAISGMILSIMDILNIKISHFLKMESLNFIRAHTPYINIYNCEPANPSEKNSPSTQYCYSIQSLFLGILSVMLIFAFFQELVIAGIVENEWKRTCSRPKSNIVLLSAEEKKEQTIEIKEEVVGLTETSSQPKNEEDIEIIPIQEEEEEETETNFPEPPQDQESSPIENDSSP

The term EC50 (read off the curve) denotes the concentration at which the effect is half-maximal. For the substance MabThera (Rituximab) (antibody), the EC50 (read off the curve) was determined as 1 µg/mL.
